Key:
soluble mouse BLyS [1] = target: T1, soluble mouse BLyS (mouse, UniProt Q9WU72 127-309); experiment: ELISA, soluble mBLyS
T1 construct: europium-labelled in DELFIA; also called mBLyS; mouse BAFF (BLyS)

soluble human BLyS [2] = target: T2, soluble human BLyS (human, UniProt Q9Y275 134-285); experiment: blocking of biotinylated soluble hBLyS binding to immobilized mBR3
T2 construct: also called hBLyS; human BAFF (BLyS)

soluble human BLyS [3] = target: T2, soluble human BLyS; experiment: ELISA, soluble hBLyS
soluble mouse BLyS [4] = target: T1, soluble mouse BLyS; experiment: Biacore T100, binder captured by anti-human Fc, BLyS injected, 1:1 model
Description: (§1) A Series S CM5 Chip (GE Healthcare) was amine coupled with an anti-human Fc capturing antibody (GE Healthcare Human Fc Kit) to >10,000 RUs. Sample antibodies were diluted in 1×HBS-EP+ running buffer to 0.15 ug/mL and injected for 45 seconds at 10 uL/min. […] Biacore Evaluation software was used to fit the data to a 1:1 Binding Model.

soluble mouse BLyS [5] = target: T1, soluble mouse BLyS; experiment: DELFIA competition, Eu-mBLyS binding to coated TACI
Description: (§2) After 5× washing with 200 ul/well of DELFIA 1× wash solution (PE, Cat #4010-0010), plates were blocked with 3% BSA purified from trace heavy metal amounts (PE, Cat #CR84-100) for 3 hours with shaking at room temperature. Plates were washed again five times at 200 μl/well with DELFIA wash solution.
(§3) The final 3 wells across the plate served as controls (2 wells contained 2,000 pM mAbs for negative and background controls while the third contained no mAbs for positive control). […] After 18-24 hrs at 4° C., plates were read on PE EnVision plate reader with laser excitation, LANCE/DELFIA top mirror, and emission filter Eu-615 with a delay of 400 μs. Data were fit to four parameter (variable slope) inhibition dose response curve using GraphPad PRISM 5.0 software.

soluble human BLyS [6] = target: T2, soluble human BLyS; experiment: DELFIA competition, Eu-hBLyS binding to coated BR3
Description: as §2, §3

soluble mouse BLyS [7] = target: T1, soluble mouse BLyS; experiment: DELFIA competition, Eu-mBLyS binding to coated BR3
Description: as §2, §3

soluble mouse BLyS [8] = target: T1, soluble mouse BLyS; experiment: Biacore, antibody captured on chip, BLyS injected, 1:1 model, 25 C
Description: (§4) Recombinant protein NG (Thermo Scientific, Cat #21186) was diluted to 100 μg/ml in 10 mM sodium acetate pH 4.0 and then immobilized on the surface of a pre-activated Series S CM5 Biacore chip (GE, Cat #BR-1005-34) using amine coupling. […] After the dissociation period, the chip was regenerated back to baseline by injecting 10 mM glycine pH 1.5 for 120 seconds over the four flow cells. […] The entire data set was fit to a 1:1 interaction model to give kₒₙ, koff, and Kd values. The assay was run at 25° C. in 1× biacore running buffer HBS-EP+ (GE, Cat #BR-1006-69).

soluble human BLyS [9] = target: T2, soluble human BLyS; experiment: as above
Description: as §4

soluble human BLyS [10] = target: T2, soluble human BLyS; experiment: DELFIA competition, Eu-hBLyS binding to coated TACI
Description: as §2, §3

human APRIL = target: T3, human APRIL (human, UniProt O75888 105-250, limits assumed); experiment: Biacore, antibody captured, APRIL injected
T3 construct: Bought recombinant protein; also called hAPRIL
T3 sequence (looked up): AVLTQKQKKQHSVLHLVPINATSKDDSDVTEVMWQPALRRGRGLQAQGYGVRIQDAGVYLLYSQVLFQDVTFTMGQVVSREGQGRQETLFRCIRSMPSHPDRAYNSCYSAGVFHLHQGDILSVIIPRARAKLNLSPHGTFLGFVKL
Description: (§5) Recombinant protein NG (Thermo Scientific, Cat #21186) was diluted to 100 μg/ml in 10 mM Sodium Acetate pH 4.0 and then immobilized on the surface of a pre-activated Series S CM4 Biacore chip (GE, Cat #BR-1005-34) using amine coupling. […] Binding response was measured as the difference in total RU increase during 300 second APRIL injection of each individual flow cell and the reference flow cell (e.g., Flow cell 2-1).

mouse APRIL = target: T4, mouse APRIL (mouse, UniProt Q9D777 96-241, limits assumed); experiment: Biacore, antibody captured, APRIL injected
T4 construct: Bought recombinant protein; also called mAPRIL
T4 sequence (looked up): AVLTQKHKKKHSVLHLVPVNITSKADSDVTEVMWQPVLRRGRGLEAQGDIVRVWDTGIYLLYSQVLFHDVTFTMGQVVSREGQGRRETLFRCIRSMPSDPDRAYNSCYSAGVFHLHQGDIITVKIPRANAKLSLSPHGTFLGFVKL
Description: as §5

soluble human BLyS [11] = target: T2, soluble human BLyS; experiment: Biacore T100, binder captured by anti-human Fc, BLyS injected, 1:1 model
Description: as §1

soluble mouse BLyS [12] = target: T1, soluble mouse BLyS; experiment: DELFIA competition, Eu-mBLyS binding to coated BCMA
Description: as §2, §3

soluble human BLyS [13] = target: T2, soluble human BLyS; experiment: DELFIA competition, Eu-hBLyS binding to coated BCMA
Description: as §2, §3

B1: 1B5 IgG expressed in HEK293 cells (antibody, V domains shown)
VH: QVQLQESGPGLVEPSETLSLTCTVSGGSISGRNYYWGWIRQSTGKGLEWIGSIYYSGSTYYNPSLKSRVTISVDTSKNQFSLKLSSVTAADTAVYYCARDLANYDILTGYYRARGAFDIWGQGTMVTVSS
VL: QSALTQPASVSGSPGQSITISCTGTSSDVGGYNYVSWYQQHPGKAPKLMIYDVNKRPSGVPDRFSGSKSANTASLTVSGLQAEDEADYYCSSYTAGGNWVFGGGTKLTVLG
notes: IgG from HEK293-FreeStyle cells
Q: Which IC50 (soluble mouse BLyS [1]) does the source give for B1 here?
A: The IC50 was 17 nM.

Q: And the IC50 (soluble human BLyS [2])?
A: The IC50 was 21 nM.

Q: And the IC50 (soluble human BLyS [3])?
A: Its IC50 is 15 nM.

B2: human TACI (R&D Systems receptor chimera) (receptor, UniProt O14836 2-166, looked up, not shown: a dimerising Fc or GST)
chain: SGLGRSRRGGRSRVDQEERFPQGLWTGVAMRSCPEEQYWDPLLGTCMSCKTICNHQSQRTCAAFCRSLSCRKEQGKFYDHLLRDCISCASICGQHPKQCAYFCENKLRSPVNLPPELRRQRSGEVENNSDNSGRYQGLEHRGSEASPALPGLKLSADQVALVYST
notes: also called hTACI; TACI rec Human
Q: Which results are given for B2?
A: Kd (soluble mouse BLyS [4]): 0.105 nM; koff (soluble mouse BLyS [4]): 6.5e-05 s⁻¹; kon (soluble mouse BLyS [4]): 621000 M⁻¹ s⁻¹

B3: 5G10 IgG1 F243A/V264A double mutein expressed in Pichia pastoris (antibody, V domains shown)
VH: QMQLVQSGAEVKKPGASVKVSCKASGYTFTSYAMHWVRQAPGQRLEWMGWINAGNGNTKYSQKFQGRVTITRDTSASTAYMELSSLRSEDTAVYYCAREMAVAGTYYYYGMDVWGQGTTVTVSS
VL: DIQLTQSPSTLSASVGDRVTITCRASQSISGWLAWYQQKPGRAPKLLIYKASSLESGVPSRFSGSGSGTDFTLTISSLQPEDIATYYCQQFDNLLLMYTFGQGTKLEIRR
notes: IgG1 F243A/V264A (EU) double mutein, alpha-2,6-sialylated, from glycoengineered Pichia pastoris; also called 5G10 (D132947)
Q: B3 was tested. Which Kd (soluble mouse BLyS [4]) did it give?
A: The Kd was 0.732 nM.

Q: What about the koff (soluble mouse BLyS [4]) of the same binder?
A: Its koff is 0.000451 s⁻¹.

Q: What about the kon (soluble mouse BLyS [4]) of the same binder?
A: The kon was 616000 M⁻¹ s⁻¹.

B4: 5G10 IgG expressed in HEK293 cells (antibody, V domains shown)
VH: QMQLVQSGAEVKKPGASVKVSCKASGYTFTSYAMHWVRQAPGQRLEWMGWINAGNGNTKYSQKFQGRVTITRDTSASTAYMELSSLRSEDTAVYYCAREMAVAGTYYYYGMDVWGQGTTVTVSS
VL: DIQLTQSPSTLSASVGDRVTITCRASQSISGWLAWYQQKPGRAPKLLIYKASSLESGVPSRFSGSGSGTDFTLTISSLQPEDIATYYCQQFDNLLLMYTFGQGTKLEIRR
notes: as for B1
Q: For B4, which IC50 (soluble mouse BLyS [1]) is on record?
A: The IC50 was 51 nM.

B5: 1D6 IgG expressed in HEK293 cells (antibody, V domains shown)
VH: QVTLKESGPTLVKPTQTLTLTCTFSGFSLSTDGVGVGWIRQPPGKALEWLALIYGDDDKRYSPSLKSRLTITKDTSKNQVVLTMTNMDPVDTATYYCAHSISNYDILTGHWIAKTYDYWGQGTLVTVSS
VL: QSALTQPPSASGSPGQSVSISCIGSRSDIGYYNYVSWYQQHPGEAPKLIIFDVSKRPSGVPDRFSGSKSGNTASLTVSGLQPEDEADYYCASYGGRNNLLFGGGTQLTVLG
notes: as for B1
Q: Does B5 bind (soluble mouse BLyS [1])?
A: Result: no binding

Q: What about the IC50 (soluble human BLyS [2]) of the same binder?
A: The IC50 was > 100 nM.

B6: 8D12 IgG1 F243A/V264A double mutein expressed in Pichia pastoris (antibody, V domains shown)
VH: QVQLVQSGAEVKKPGASVKVSCKASGYTFTSYAMHWVRQAPGQRLEWMGWINAGNGNTKYSQKFQGRVTITRDTSASTAYMELSSLRSEDTAVYYCARAYYDILTGYSVYGMDVWGQGTTVTVSS
VL: EIVLTQSPATLSLSPGERATLSCRANESVGNYLAWYQQKPGQAPRLLIYGASRRATGIPDRFSGSGSGTDFTLTISRLEPEDFAVYYCQQYGSSLLTFGGGTKVEIKR
notes: IgG1 F243A/V264A (EU) double mutein, alpha-2,6-sialylated, from glycoengineered Pichia pastoris; also called 8D12-DM; 8D12-DM (Pichia)
Q: With B6 as the binder, how does the IC50 (soluble mouse BLyS [5]) read?
A: The IC50 was > 2 nM.

Q: What about the IC50 (soluble human BLyS [6]) of the same binder?
A: The IC50 was 0.101 nM.

Q: What about the IC50 (soluble mouse BLyS [7]) of the same binder?
A: The IC50 was > 2 nM.

Q: What about the Kd (soluble mouse BLyS [8]) of the same binder?
A: The Kd was 0.099 nM.

Q: What about the koff (soluble mouse BLyS [8]) of the same binder?
A: Its koff is 5.7e-05 s⁻¹.

Q: What about the kon (soluble mouse BLyS [8]) of the same binder?
A: The kon was 580000 M⁻¹ s⁻¹.

Q: What about the Kd (soluble human BLyS [9]) of the same binder?
A: The Kd was 0.138 nM.

Q: What about the koff (soluble human BLyS [9]) of the same binder?
A: The koff was 3.5e-05 s⁻¹.

Q: What about the kon (soluble human BLyS [9]) of the same binder?
A: The kon was 260000 M⁻¹ s⁻¹.

Q: What about the IC50 (soluble human BLyS [10]) of the same binder?
A: Its IC50 is < 0.0003 nM.

Q: Does B6 bind (human APRIL)?
A: Result: no binding (tested: 50 nM)

Q: Does B6 bind (mouse APRIL)?
A: Result: no binding (tested: 50 nM)

Q: What about the Kd (soluble mouse BLyS [4]) of the same binder?
A: The Kd was 0.134 nM.

Q: What about the koff (soluble mouse BLyS [4]) of the same binder?
A: The koff was 0.000196 s⁻¹.

Q: And the kon (soluble mouse BLyS [4])?
A: The kon was 1.46e+06 M⁻¹ s⁻¹.

Q: What about the Kd (soluble human BLyS [11]) of the same binder?
A: Its Kd is 0.049 nM.

Q: And the koff (soluble human BLyS [11])?
A: The koff was 5.4e-05 s⁻¹.

Q: And the kon (soluble human BLyS [11])?
A: Its kon is 1.11e+06 M⁻¹ s⁻¹.

Q: What about the IC50 (soluble mouse BLyS [12]) of the same binder?
A: The IC50 was > 2 nM.

Q: And the IC50 (soluble human BLyS [13])?
A: Its IC50 is 1.28 nM.

Source: patent US20170101466A1 (published 2017)
